Results taken from patent US20070072177A1.

B1: CR04-108 (antibody)
VH: AMAEVQLVQSGGGLVQPGGSLRLSCAASGFTFSSYGMHWVRQAPGKGLEWVAVILYDGSDKFYADSVKGRFTISRDNSKDTLYLQMNSLRAEDTAVYYCAKFMIVADDAFDIWGQGTMVTVSSGTGGSGGTGSGTGGSTDIQLTQSPSSLSASVGDRVTITCRASQGISSHLVWYQQKPGKAPKSLIYAASSLQSGVPSRFSGSESATDFTLTISSLQPEDFATYYCQQYYSYPITFGQGTRLEIKRAAA
VL: B1 VH
B2: CR04-144 (antibody)
VH: AMAQVQLQELGGGVVQPGRSLRLSCAASGFTFGSYGMHWVRQAPGKGLEWVATISYDGSIKDYADSEKGRFTISRDNSKNTLYLQMNSLRAEDTAVYYCAKGGKTGEFDYWGQGTLVTVSSGTGGSGGTGSGTGGSTDIQLTQSPSSLSASVGDRVTITCRASQGISSYLAWYQQKPGKGPKLLIYAASTLQSGVPSRFSGSGSGTDFSLTISSLQPEDLATYYCQQYDSYPLTFGGGTKVEIKRAAA
VL: B2 VH
B3: CR04-140 (antibody)
VH: AMAQMQLVQSGGGVVQPGRSLRLSCAASGFTFSSYGMHWVRQAPGKGLEWVAVILYDGSNKYYADSVKGRFTISRDNSKNALYLQMNSLRAEDTAVYYCAKVTNPGDAFDIWGQGTMVTVSSGTGGSGGTGSGTGGSTDIQMTQSPSSLSASVGDRVTITCRASQGISSALAWYQQKPGKAPKLLIYDASSLESGVPSRFSGSGSGTDFTLTISSLQPEDFATYYCQQFNSYPLTFGGGTKVEIKRAAA
VL: B3 VH
B4: CR04-120 (antibody)
VH: AMAEVQLVQSGGGLVQPGRSLRLSCAASGFTFSTYGMHWVRQAPGKGLEWVATISYDGSIKDYADSEKGRFTISRDNSKNTLYLQMNSLRAEDTAVYYCAKGGKTGEFDYWGQGTLVTVSSGTGGSGGTGSGTGGSTDIQLTQSPSTLSASVGDRVTITCRASQGINSYLAWYQQEPGKAPKLLIYAASTLQSGVPSRFSGSGSGTEFTLTISSLQPEDFATYYCQQLNSYPFTFGPGTKVDIKRAAA
VL: B4 VH

Target: rabies virus glycoprotein (G protein) of strain CVS-11 (rabies virus strain CVS-11) (UniProt O92284)
Sequence (O92284 20-524 limits assumed): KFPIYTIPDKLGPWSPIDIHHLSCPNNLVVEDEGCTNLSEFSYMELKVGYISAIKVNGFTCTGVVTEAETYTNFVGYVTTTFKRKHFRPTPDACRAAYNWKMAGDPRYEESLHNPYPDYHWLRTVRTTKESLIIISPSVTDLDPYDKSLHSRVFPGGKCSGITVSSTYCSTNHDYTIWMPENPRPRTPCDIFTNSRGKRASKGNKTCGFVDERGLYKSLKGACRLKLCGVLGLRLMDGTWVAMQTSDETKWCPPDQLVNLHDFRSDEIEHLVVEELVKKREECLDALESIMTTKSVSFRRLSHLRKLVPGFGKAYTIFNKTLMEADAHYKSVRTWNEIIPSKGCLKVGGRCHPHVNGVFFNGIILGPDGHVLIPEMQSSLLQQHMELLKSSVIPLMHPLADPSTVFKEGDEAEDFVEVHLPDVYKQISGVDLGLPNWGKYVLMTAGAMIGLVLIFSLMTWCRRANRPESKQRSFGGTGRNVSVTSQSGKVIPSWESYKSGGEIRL
Assay: cell-based or functional assay

Row | Binder | Neutralizing potency (modified RFFIT)
1 | B1 | 4870 IU/mg
2 | B2 | 6250 IU/mg
3 | B3 | 478 IU/mg
4 | B4 | 4940 IU/mg
